Reference: patent publication US20040093164A1, “Computer system and methods for producing morphogen analogs of human TDF-1” (priority 2002, published 2004)

Key:
ROS cells = assay: effect of alpha-2 macroglobulin on TDF-1 stimulated alkaline phosphatase activity in a ROS cell assay; assay type: cell-based
alpha-2 macroglobulin [1] = molecular target: T1, alpha-2 macroglobulin (Homo sapiens, UniProt P01023); assay: competition binding assay with immobilized alpha-2 macroglobulin and labeled and unlabeled TDF-1; details: immobilized alpha-2 macroglobulin
T1 sequence (P01023 24-1474): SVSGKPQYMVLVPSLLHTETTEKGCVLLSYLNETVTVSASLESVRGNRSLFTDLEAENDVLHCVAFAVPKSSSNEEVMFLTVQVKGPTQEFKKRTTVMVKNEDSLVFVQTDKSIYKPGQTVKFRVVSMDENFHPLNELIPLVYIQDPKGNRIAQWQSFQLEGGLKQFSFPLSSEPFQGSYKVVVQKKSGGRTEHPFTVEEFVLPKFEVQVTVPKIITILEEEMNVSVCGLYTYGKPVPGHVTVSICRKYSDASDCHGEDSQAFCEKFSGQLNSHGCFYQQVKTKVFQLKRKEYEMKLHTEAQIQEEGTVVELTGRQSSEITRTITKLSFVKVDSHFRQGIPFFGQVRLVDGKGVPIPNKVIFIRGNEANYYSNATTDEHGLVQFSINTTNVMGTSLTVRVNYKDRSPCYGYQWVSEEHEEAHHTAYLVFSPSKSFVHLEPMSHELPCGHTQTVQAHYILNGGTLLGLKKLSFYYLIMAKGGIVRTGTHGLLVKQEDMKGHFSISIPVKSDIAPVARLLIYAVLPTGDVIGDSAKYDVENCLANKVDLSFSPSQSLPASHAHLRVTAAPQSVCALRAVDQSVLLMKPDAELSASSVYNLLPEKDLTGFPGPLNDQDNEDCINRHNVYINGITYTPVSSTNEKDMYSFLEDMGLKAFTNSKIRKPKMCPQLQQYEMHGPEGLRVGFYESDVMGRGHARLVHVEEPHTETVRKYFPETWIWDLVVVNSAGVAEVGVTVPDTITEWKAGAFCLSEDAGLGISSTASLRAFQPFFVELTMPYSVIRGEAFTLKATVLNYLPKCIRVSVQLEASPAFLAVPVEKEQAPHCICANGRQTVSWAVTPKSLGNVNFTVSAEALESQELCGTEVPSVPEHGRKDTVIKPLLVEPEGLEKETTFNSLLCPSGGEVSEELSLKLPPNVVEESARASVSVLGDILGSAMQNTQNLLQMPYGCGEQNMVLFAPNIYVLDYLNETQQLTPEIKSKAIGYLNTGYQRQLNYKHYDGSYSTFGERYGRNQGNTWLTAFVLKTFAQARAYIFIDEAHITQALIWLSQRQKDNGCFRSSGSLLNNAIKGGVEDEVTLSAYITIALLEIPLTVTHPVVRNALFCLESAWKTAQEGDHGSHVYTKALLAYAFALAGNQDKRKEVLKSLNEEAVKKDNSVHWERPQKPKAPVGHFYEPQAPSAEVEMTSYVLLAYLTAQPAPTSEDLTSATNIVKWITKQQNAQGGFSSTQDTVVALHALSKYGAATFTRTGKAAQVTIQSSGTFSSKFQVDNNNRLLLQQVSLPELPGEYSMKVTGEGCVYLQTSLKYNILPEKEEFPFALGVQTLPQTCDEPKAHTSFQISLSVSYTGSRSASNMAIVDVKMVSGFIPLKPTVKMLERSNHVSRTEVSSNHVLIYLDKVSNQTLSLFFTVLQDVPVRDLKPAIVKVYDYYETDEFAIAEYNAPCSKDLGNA
Text: This N-terminal portion of the protein, which is not part of the crystal structure, is positively charged and likely is highly flexible in solution.

alpha-2 macroglobulin [2] = assay: competition binding assay, immobilized alpha-2 macroglobulin
[3] = solubility by comparing the partition coefficient of mutein versus wild type hTDF-1 dimer; assay type: physicochemical; details: partition coefficient comparison, surmised result
Text: The resulting candidate morphogen analogs can be produced using conventional site-directed mutagenesis methodologies, and the effect of the site-directed modification on the solubility of the hTDF-1 dimer can be measured, for example, by comparing the partition coefficient or “salting out properties” of the modified hTDF-1 dimer versus the native hTDF-1 dimer. See, for example, Scopes (1987) in Protein Purification: Principles and Practice, 2nd Edition (Springer-Verlag); and Englard et al. (1990) Meth. Enzymol. 182: 285-300, both incorporated herein by reference.
The enhanced solubility of the resulting morphogen analog is measured by comparing the partition coefficient of the Ala 63->Ser 63 mutein versus wild type hTDF-1 dimer. […] It is contemplated that additional muteins having multiple hydrophobic to hydrophilic substitutions can be produced and characterized using the protocols described in this Example. The biological activity of the resulting morphogen analogs can be determined using one or more of the TDF-1 activity assays described Example 1.

Alpha-2 macroglobulin: protease scavenging protein known to bind proteins in serum and target them to the kidney for clearance
interference with TDF-1's ability to stimulate alkaline phosphatase activity (ROS cells): not to interfere

TDF-1: tissue morphogenic protein Transformation and Differentiation Factor-1, SEQ ID NO:1
interaction with alpha-2 macroglobulin (alpha-2 macroglobulin [1]): interact specifically

truncated mature TDF-1, wherein the first 22 amino acids have been cleaved from the mature form of TDF-1 in a standard trypsin digest (ligand)
fold less affinity than TDF-1 (alpha-2 macroglobulin [2]): 10 fold

B1: Ala 63->Ser 63 mutein: hTDF-1 with the alanine at position 63 mutated to a serine (protein, UniProt P18075 293-431, looked up, variant A63S)
Bone morphogenetic protein 7: STGSKQRSQNRSKTPKNQEALRMANVAENSSSDQRQACKKHELYVSFRDLGWQDWIIAPEGYSAYYCEGECAFPLNSYMNATNHAIVQTLVHFINPETVPKPCCAPTQLNAISVLYFDDSSNVILKKYRNMVVRACGCH
solubility versus native hTDF-1 [3]: higher solubility than native hTDF-1
